Data set [1] deals with the molecule itself. Description: negative stain electron microscopy of polymers.
A further data set deals with T1, full-length, human CHMP7 (human, UniProt Q8WUX9 1-453).
T1 sequence (looked up): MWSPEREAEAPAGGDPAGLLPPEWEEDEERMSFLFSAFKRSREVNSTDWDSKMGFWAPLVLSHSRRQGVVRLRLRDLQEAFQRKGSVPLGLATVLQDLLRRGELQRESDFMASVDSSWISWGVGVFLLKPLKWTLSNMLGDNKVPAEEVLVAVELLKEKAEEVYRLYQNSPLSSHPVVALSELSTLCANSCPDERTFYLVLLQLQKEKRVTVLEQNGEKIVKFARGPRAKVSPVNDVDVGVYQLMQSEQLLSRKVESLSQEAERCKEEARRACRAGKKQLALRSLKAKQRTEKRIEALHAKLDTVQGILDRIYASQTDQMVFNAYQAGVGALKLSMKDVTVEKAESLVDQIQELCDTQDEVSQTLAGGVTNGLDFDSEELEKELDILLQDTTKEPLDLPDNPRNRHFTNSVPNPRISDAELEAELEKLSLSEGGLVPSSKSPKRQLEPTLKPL
The experiment in a line: co-sedimentation.

Another data set has as its target T2, CHMP7_(R270E+I312E) (human, UniProt Q8WUX9 1-453, R270E | I312E).
T2 sequence (looked up): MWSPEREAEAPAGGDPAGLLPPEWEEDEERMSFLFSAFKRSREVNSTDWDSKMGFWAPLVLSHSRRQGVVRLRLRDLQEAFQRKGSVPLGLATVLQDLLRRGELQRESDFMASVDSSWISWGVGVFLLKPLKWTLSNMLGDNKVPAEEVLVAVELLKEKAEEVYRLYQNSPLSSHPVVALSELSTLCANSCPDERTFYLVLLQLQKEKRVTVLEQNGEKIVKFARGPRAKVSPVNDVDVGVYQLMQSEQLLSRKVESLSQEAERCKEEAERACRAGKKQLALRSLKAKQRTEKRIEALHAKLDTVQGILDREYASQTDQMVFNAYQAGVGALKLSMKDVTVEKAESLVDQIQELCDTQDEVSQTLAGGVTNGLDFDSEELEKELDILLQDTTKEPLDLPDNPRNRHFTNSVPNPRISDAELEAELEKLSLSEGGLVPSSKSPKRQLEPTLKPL
The experiment in a line: co-sedimentation.

The target of the next data set is T3, CHMP7_(R270E+V339D) (human, UniProt Q8WUX9 1-453, R270E | V339D).
T3 sequence (looked up): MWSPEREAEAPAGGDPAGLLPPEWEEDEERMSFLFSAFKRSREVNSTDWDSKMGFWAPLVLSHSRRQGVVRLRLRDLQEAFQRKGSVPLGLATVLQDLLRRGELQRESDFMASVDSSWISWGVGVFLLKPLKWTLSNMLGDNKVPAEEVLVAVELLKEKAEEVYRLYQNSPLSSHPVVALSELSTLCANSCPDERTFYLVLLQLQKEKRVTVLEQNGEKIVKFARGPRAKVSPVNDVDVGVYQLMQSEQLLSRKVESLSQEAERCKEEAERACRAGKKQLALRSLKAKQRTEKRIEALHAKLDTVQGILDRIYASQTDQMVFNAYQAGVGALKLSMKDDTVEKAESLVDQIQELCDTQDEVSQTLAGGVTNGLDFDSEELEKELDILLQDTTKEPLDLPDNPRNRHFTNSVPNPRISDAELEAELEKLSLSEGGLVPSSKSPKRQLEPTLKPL
Description: co-sedimentation.

In the next data set the target is T4, CHMP7_(I312E+V339D) (human, UniProt Q8WUX9 1-453, I312E | V339D).
T4 sequence (looked up): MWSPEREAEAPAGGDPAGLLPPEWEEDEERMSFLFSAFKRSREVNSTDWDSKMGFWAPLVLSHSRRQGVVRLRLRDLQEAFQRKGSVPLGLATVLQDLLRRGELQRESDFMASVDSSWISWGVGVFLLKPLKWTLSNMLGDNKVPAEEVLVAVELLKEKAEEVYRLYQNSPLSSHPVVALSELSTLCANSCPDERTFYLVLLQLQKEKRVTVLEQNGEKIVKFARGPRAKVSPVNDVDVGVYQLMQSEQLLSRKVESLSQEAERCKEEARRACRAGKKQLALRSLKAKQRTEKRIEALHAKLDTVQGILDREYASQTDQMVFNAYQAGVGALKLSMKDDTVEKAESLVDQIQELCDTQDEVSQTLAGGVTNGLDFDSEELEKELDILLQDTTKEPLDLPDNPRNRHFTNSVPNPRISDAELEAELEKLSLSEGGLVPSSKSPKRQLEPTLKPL
The experiment in a line: co-sedimentation.

B1: CHMP7_(ESCRT-III) (AA:229–453) (domain or fragment, human, UniProt Q8WUX9 229-453, looked up)
chain: AKVSPVNDVDVGVYQLMQSEQLLSRKVESLSQEAERCKEEARRACRAGKKQLALRSLKAKQRTEKRIEALHAKLDTVQGILDRIYASQTDQMVFNAYQAGVGALKLSMKDVTVEKAESLVDQIQELCDTQDEVSQTLAGGVTNGLDFDSEELEKELDILLQDTTKEPLDLPDNPRNRHFTNSVPNPRISDAELEAELEKLSLSEGGLVPSSKSPKRQLEPTLKPL
B1: the binding result in data set [1] is “binds”.

B2: WH domain of LEM2 (LEM2WH; AA:395–503) (domain or fragment, human, UniProt Q8NC56 395-503, looked up)
chain: ILLKYRWRKLEEEEQAMYEMVKKIIDVVQDHYVDWEQDMERYPYVGILHVRDSLIPPQSRRRMKRVWDRAVEFLASNESRIQTESHRVAGEDMLVWRWTKPSSFSDSER
As usually defined, the stoichiometry N is a count of units in the complex or per binding partner. Take B2: the “stoichiometry N” value with full-length, human CHMP7 stood at 1. In addition, the binding result with CHMP7_(R270E+I312E), with CHMP7_(R270E+V339D) and with CHMP7_(I312E+V339D) was “binds” in each case.

For the origin of these results see article PMC7321842 (Nature, 2020).
